Data on one substance can be found in US20060029943A1.

For this experiment, the target named is HLA class I on primary cervical cancer cells CA1 and CA2 (haplotype HLA A1) (human). Description: cell-based or functional assay.

As for “Mab specific for monomorphic HLA class I W6/32 (antibody)”, the percent killing of CA1 target, AAV/E6/Neo (purified virus) plus anti-class I antibodies (36.1+/-1.4% without antibody) was 0.4%.
